From PMC5928105

Molecular target: 20S proteasome core (mouse (endogenous in mouse retina)) (UniProt Q9Z2U0)
Experiment: SEC; retinal lysates of WT or PA28α overexpressing mice on Superose-6 (Fig. 1) or Superose-6 Increase; 50 mM Tris-HCl pH 7.4, 40 mM NaCl, 5 mM MgCl2, 10% glycerol, 1 mM DTT, 1 mM ATP; 0.5 ml fractions western-blotted for β1 (20S), PSMD11 (19S) and PA28α (11S)

Sequence of UniProt Q9Z2U0 (Q9Z2U0 whole entry, looked up): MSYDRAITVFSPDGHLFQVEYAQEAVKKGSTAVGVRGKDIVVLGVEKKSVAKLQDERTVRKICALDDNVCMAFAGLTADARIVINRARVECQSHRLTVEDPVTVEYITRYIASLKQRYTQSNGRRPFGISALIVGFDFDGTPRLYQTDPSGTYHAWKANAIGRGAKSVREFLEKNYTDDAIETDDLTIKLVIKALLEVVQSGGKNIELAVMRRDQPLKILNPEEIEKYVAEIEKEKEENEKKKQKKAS

| Substance | percent of PA28α co-eluting with 20S [%] | percent of 20S cores co-eluting with 19S caps [%] |
| --- | --- | --- |
| 11S caps formed upon PA28α overexpression (homomeric, PA28α subunits alone) (from UniProt P97371 1-249) (complex) | 2 | – |
| 19S proteasome cap (from UniProt Q8BG32 1-422; Q8BJY1 1-504; Q99JI4 1-389; Q3TXS7 1-953) (complex) | – | 45 |
